Test results published in patent US20090137002A1 (published 2009).

Experiments:
[1] = target: T1, recombinant mouse EphA4-Fc fusion protein (mouse, UniProt Q03137 20-547, limits assumed); assay: ELISA: biotinylated mEphrinB2 on coated mEphA4
T1 construct: also called mEphA4; not shown: Fc part, not described
Method: (§1) A 96-well plate was coated with recombinant mEphB3, mEphA4 and hEphB4 in PBS o/n at 4° C. (5 μg/mL; 100 μL/well). The next day, the antigen was discarded and the plate blocked with 3% BSA/PBS (300 μl/well) for 2 hrs at room temperature (RT). Blocking solution was discarded and anti-EphB4 Fabs were added to the wells at a concentration of 100 μg/mL in 1% BSA/PBS and incubated for 30 min at RT. Recombinant biotinylated murine EphrinB2 was added at a final concentration of 250 ng/mL and incubated at RT for a further 30 min. The plate was washed and bound EphrinB2 was detected with Streptavidin-HRP (incubation 30 min at RT) and chemifluorescent substrate.

[2] = target: T2, recombinant human EphB4-Fc fusion protein (human, UniProt P54760 16-539); assay: ELISA: biotinylated mEphrinB2 (250 ng/mL) on coated hEphB4, with or without 100 µg/mL anti-EphB4 Fab
T2 construct: extracellular domain; also called hEphB4; hu EphB4-Fc
T2 sequence (looked up): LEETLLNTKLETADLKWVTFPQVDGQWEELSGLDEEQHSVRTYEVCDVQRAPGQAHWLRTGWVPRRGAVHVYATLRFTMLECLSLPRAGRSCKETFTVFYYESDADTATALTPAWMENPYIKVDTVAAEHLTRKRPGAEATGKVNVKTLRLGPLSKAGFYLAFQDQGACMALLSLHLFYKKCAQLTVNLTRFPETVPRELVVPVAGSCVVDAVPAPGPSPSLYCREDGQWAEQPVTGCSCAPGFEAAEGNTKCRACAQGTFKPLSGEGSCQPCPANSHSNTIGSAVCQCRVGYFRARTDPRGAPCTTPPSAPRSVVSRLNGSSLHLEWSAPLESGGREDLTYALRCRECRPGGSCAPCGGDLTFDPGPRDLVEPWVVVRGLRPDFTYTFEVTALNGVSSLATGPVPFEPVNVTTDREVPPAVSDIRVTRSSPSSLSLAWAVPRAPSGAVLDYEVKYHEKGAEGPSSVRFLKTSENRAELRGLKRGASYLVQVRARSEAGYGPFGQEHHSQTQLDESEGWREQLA
Method: as §1

[3] = target: T3, recombinant mouse EphB3-Fc fusion protein (mouse, UniProt P54754 30-537, limits assumed); assay: ELISA: biotinylated mEphrinB2 (250 ng/mL) on coated mEphB3, with or without 100 µg/mL anti-EphB4 Fab
T3 construct: also called mEphB3; not shown: Fc part, not described
T3 sequence (looked up): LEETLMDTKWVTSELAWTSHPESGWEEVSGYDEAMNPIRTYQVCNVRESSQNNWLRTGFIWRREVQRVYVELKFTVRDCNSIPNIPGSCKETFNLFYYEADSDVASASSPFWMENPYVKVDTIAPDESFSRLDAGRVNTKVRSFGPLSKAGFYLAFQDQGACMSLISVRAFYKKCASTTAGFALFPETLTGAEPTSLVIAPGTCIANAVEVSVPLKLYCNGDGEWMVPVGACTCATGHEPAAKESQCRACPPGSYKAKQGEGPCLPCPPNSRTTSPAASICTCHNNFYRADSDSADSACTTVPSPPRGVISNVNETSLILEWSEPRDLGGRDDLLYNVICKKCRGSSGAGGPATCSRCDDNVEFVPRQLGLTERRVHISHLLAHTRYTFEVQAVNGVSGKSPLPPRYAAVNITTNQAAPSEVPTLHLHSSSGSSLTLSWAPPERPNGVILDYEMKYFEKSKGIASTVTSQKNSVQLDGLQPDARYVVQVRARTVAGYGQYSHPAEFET
Method: as §1

[4] = target: T3, recombinant mouse EphB3-Fc fusion …; assay: ELISA: mEphrinB2-Fc (25 ng/ml) on coated mEphB3-Fc, with or without 100 µg/mL anti-EphB4 Fab
Method: Specificity for EphB4 in ELISA: Wells of a 96-well maxisorp-plate were coated overnight with 100 μL recombinant human EphB4 (hEphB4)-, recombinant mouse EphB3 (mEphB3)- or recombinant mouse EphA4 (mEphA4)-Fc fusion protein at a final concentration of 2.5 μg/mL in PBS. Anti-EphB4 Fab fragments (purified, MH-tagged) were added (100 μL/well, 100 μg/mL final concentration in chemiblock) to respective wells and incubated for 1 h at RT. Then 100 μl mEphrinB2-Fc fusion protein either spiked with the respective anti-EphB4 Fab or with PBS was added (25 ng/ml mEphrinB2+/−100 μg/ml Fab diluted in chemiblock) and incubated for max. 20 min at RT. The amount of bound EphrinB2 was detected using biotinylated goat anti-EphrinB2 antibody (0.05 μg/ml final concentration diluted in chemiblock, 1 h at RT), AP-conjugated streptavidin and AttoPhos substrate. Fluorescence was measured (RFU) at 535 nm (430 nm excitation).

[5] = target: T4, myc-tagged human EphB4 on transfected CHO cells (human, UniProt P54760 16-987); assay: FACS titration of IgG4-Pro on CHO-EphB4 cells; n = 1
T4 construct: whole, on cells; also called CHO-EphB4; CHO-hEphB4; not shown: myc tag
T4 sequence (looked up): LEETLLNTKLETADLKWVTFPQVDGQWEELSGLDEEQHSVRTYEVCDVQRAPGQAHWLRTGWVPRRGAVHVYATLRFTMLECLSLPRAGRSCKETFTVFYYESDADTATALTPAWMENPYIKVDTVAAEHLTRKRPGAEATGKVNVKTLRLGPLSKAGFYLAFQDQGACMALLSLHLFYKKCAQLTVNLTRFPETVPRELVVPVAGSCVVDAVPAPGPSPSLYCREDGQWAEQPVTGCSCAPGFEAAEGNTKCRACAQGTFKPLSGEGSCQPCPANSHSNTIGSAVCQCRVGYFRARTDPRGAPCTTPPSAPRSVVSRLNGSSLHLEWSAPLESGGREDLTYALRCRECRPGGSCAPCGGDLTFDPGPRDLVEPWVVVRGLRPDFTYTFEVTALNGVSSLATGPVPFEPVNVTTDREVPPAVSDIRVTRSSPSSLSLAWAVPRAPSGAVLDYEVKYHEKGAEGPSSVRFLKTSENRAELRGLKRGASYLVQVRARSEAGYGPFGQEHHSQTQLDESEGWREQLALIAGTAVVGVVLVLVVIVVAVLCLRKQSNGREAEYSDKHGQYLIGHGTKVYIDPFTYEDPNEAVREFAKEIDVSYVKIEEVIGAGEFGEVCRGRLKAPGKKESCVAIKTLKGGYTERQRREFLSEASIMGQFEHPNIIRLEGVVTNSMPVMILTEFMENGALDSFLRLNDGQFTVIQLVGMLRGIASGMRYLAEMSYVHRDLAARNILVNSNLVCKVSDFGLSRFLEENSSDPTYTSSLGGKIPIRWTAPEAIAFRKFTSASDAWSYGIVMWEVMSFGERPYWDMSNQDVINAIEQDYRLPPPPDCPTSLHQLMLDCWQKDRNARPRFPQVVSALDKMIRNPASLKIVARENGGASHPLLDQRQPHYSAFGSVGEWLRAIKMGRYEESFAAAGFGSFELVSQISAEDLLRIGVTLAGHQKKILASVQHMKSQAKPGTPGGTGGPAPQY
Method: (§2) For the determination of EC50 values, the 12 final IgGs were analyzed on CHO-EphB4 cells in FACS. The EC50 values of the IgGs, determined in two independent experiments, are given in Table 11 and are compared to the EC50 values of the corresponding Fab. […] Again, as already seen for the Fab, the EC50 values of the MOR07310 pool were slightly better than those of the MOR03641 pool.

[6] = target: T4, myc-tagged human EphB4 on transfected …; assay: FACS competition on CHO-EphB4 cells, competitor murine ephrin-B2
Method: (§3) C50 values (i.e. IgG4-Pro inhibition of ligand binding) were determined in FACS. […] Receptor-bound ephrin-B2 was detected via biotinylated anti-mouse ephrin-B2 antibody (R&D Systems) and streptavidin-PE. The IC50 values of the IgGs, determined in two independent experiments, are given in Table 11 and are compared to the IC50 values of the corresponding Fab. […] Again, as already seen for the Fab, the IC50 values of the MOR07310 pool were slightly better than those of the MOR03641 pool.

[7] = target: T4, myc-tagged human EphB4 on transfected …; assay: FACS, IgG4-Pro inhibition of murine ephrin-B2 binding to CHO-EphB4 cells
Method: as §3

[8] = target: T4, myc-tagged human EphB4 on transfected …; assay: FACS titration of IgG4-Pro on CHO-EphB4 cells
Method: as §2

[9] = target: T4, myc-tagged human EphB4 on transfected …; assay: FACS titration of IgG4-Pro on CHO-EphB4 cells; end tied by Table 11 (4.83)
Method: as §2

[10] = target: T4, myc-tagged human EphB4 on transfected …; assay: FACS, IgG4-Pro inhibition of murine ephrin-B2 binding to CHO-EphB4 cells; end tied by Table 11 (11.55)
Method: as §3

T1 sequence (Q03137 20-547 limits assumed): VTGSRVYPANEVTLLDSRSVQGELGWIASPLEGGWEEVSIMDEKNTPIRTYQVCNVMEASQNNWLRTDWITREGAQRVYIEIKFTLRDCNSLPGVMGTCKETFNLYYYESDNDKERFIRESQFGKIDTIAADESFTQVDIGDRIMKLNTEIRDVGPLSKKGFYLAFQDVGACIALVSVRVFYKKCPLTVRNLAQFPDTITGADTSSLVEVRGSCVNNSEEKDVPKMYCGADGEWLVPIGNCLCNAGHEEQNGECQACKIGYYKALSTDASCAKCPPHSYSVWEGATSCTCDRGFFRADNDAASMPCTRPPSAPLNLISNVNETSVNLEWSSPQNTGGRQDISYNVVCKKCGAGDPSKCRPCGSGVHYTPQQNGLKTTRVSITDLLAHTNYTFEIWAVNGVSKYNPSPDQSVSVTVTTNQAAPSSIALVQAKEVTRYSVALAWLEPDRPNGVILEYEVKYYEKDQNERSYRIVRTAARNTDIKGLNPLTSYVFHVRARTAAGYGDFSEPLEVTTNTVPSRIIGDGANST

B1: recombinant murine EphrinB2 (extracellular domain) (ligand, mouse, UniProt P52800 29-232, looked up)
chain: RSIVLEPIYWNSSNSKFLPGQGLVLYPQIGDKLDIICPKVDSKTVGQYEYYKVYMVDKDQADRCTIKKENTPLLNCARPDQDVKFTIKFQEFSPNLWGLEFQKNKDYYIISTSNGSLEGLDNQEGGVCQTRAMKILMKVGQDASSAGSARNHGPTRRPELEAGTNGRSSTTSPFVKPNPGSSTDGNSAGHSGNNLLGSEVALFA
modifications: biotinylated in Examples 8 and 10-12
notes: extracellular domain; also called mEphrinB2; recombinant biotinylated murine EphrinB2
binding result [1]: no binding (tested: 250 ng/mL) | binding result [2]: binds | binding result [3]: binds

B2: mEphrinB2-Fc fusion protein (Fc fusion, mouse, UniProt P52800 27-227, looked up)
chain: ISRSIVLEPIYWNSSNSKFLPGQGLVLYPQIGDKLDIICPKVDSKTVGQYEYYKVYMVDKDQADRCTIKKENTPLLNCARPDQDVKFTIKFQEFSPNLWGLEFQKNKDYYIISTSNGSLEGLDNQEGGVCQTRAMKILMKVGQDASSAGSARNHGPTRRPELEAGTNGRSSTTSPFVKPNPGSSTDGNSAGHSGNNLLGSE
notes: not shown: Fc part, not described
binding result [4]: binds

B3: MOR07720 IgG4-Pro (antibody, V domains shown)
VH: QVQLVESGGGLVQPGGSLRLSCAASGFTFNNAWMSWVRQAPGKGLEWVSQIEAKQPGGATSYAASVKGRFTISRDNSKNTLYLQMNSLRAEDTAVYYCARKGMSFYNNKYAKSMFDLWGQGTLVTVSS
VL: DIELTQPPSVSVAPGQTARISCSGDNLGKKYVHWYQQKPGQAPVLVIYYDSKRPSGIPERFSGSNSGNTATLTISGTQAEDEADYYCSAWTTTMMHIVFGGGTKLTVLG
notes: Fab MOR07720 converted into human IgG4-Pro format
EC50 [5]: 0.3 nM | IC50 (read off the curve) [6]: ~0.1 nM | IC50 [7]: 0.11 nM

B4: MOR07729 IgG4-Pro (antibody, V domains shown)
VH: QVELVQSGAEVKKPGSSVKVSCKASGGTFSTYAISWVRQAPGQGLEWMGRIIPIFGTANYAQKFQGRVTITADESTSTAYMELSSLRSEDTAVYYCARSSYTILTTYYNYNAMDNWGQGTLVTVSS
VL: DIQMTQSPSSLSASVGDRVTITCRASQNINNFLNWYQQKPGKAPKLLIYGSSILQSGVPSRFSGSGSGTDFTLTISSLQPEDFATYYCQQYDFYLSGTFGQGTKVEIKR
notes: Fab MOR07729 converted into human IgG4-Pro format
EC50 [8]: 4.83 nM | EC50 (read off the curve) [8]: ~5 nM | EC50 [9]: 4.8 nM | IC50 (read off the curve) [6]: ~20 nM | IC50 [7]: 11.6 nM | IC50 [10]: 11.6 nM
